Measurements: a protein production outcome set (Wang et al. 2014)

Assay: label from the status in PepcDB records

Sequence	protein production
MTNKQKMRKRRRALLCVFAAFAFSFNPLGKIAYATPKQDTSVVNYVKTQEETSNSIQNQPISSYWYPEDLLKWSANNDKDAKFNKSTVPLAKRVEKDKLDTINDTQNKDVKVVAISIMNANTSGNPSQGSNKFSANTFSYWQYIDKLVYWGGSAGEGLIVPPSPDVTDSAHRNGVPVLGTVFFPMTAHGGKMEWLNKFLEKDANGNFPIVDKLIEVAENYGFDGWFINQETEGTEQEPLTPEHAKLMQELIKQFKAKSNGKFEIMWYDSMTKDGDMDWQNALTDKNEYFLLDGDKNKVADSIFLNFWWTYNSLKDKDLLRVSNEKAKEIGINPYDLYAGIDVQANGYKTPLRWTHYQRDDQAPFTSLGLYCPSWTYFDAKTPEQFQENENRLWVNEHGDPSKTTNAQGVDWRGISTYSVEKSAVTSLPFTTNFNIGNGYDFYVDGNKVSTQDWNNRSLNDIMPTYRWVISNEENNNVKADIDYTTAYYGGNSIKLSGYLAEGKASTIKLYSSDLTLPEGVQFTTTAKANGNTVDMDLVLTFHDGTETTISADKKLGTDWTKLNYDVSPYVGKSIKTISYKLSSPVCVDNFSANLGNITIEIPNSSSKVNISNAKLNDVDFKDGIYAGARLSWSPEGNSSDVHHYEIYRVMNDGTKVLLGATPNTSYYVSDLRRNDKETNTNFEVVAVNKNFNRGNSQSINMEWPAYPAPTASFKVSNTLIAPGQSVTFTNTSSEVTEEIQWKFPGAKVESSTEQNPTVTYEKEGVYPVILTAKNSSGENVETKTELITVTNAAKDGLVNLSLNKSAKASSFVNENEAPQYALDGNVKTKWCAVGSAPHTLTIDLGDIKTIGELEISHAEAGGESSGMNTKAYSFEVSNDGENFTPVLNVDDNTKAISNDAFPVTKARYVRLNIIQPTQGADSAARIYEVAVKGLDGNVDLPPVMNPDDSNKPVDPDQPENPDKPNNPEKPENPDNPGNTDKPVNPDQPGDSEKPETPNKPGDTENPEGKPANPSDLVSKEITENSALLSWKAPEKVESIQEYVVYQDGKEIGRVPTDKTPLEFLVKDLKPNTKYNFEVSSIDKDGKESDKISLEVTTKKKDNGNLPNTGSPIGAGALATTGIALSSAGVYLTLKKKRK	failed
MTNLFLGFLVISFCLLGNLIHAADGSIHDYNNSGGFTKIANARYFVGGSEGIYGSEFLDVHHASSDTPLLKGNSFIRFDDITFVRTKESASKQNSTLAAAGLVEAILFEVKQRDRVGGSFFKSEDMCCTPKLADAGSCNLGEVMISADPNDPEWPKRIPTFFKRGEEEVKMSPEAVIIKKTGLYTVYFMTCDPELDGATIRGRTVWKNRGGYLQGEKAPLKKFYASMLLAYVVLGLVWFPQVAQYWKDGIQLHSHINFVIAFTMGELAFLYLDFVYLDSAGTSPMEVTVWAITLSSMRKALSRLLLLVISSGFGIVRPTLGGITLKMLLIGVLCFVISESLGLAMQFGNISENGMNYLMLSWAILETCFIQWIFRSLSKTLKKLKLNKRNITKLQLYKMFATVLVIMVVLSFAWIYVEVYLYSSLSQFWKVKWIVPTLWYILSYAMLVLICLFWPPSEKPMRYLYVADMEEETEEEDDLSTAETGMNATKAEYERSERKTLLEAFILLLGNIPGEK	failed
MTNMRQVLKTDRLVLEPQSMARFDQWFAMERQRDEAGHRDLTEDQAWLRLCARQGMWDAYACGFYYLLDPVSGEMRGEAGFQFRRRGFGPGFDNHPEAAWAVASAHQGRGLAAEAMQALLAHHDRSSGRQRVVALIARSNLPSLRLAERLGFRGYSDVAFDGAAHLLLERAG	not failed
MTNNAKKEPQQRGKHQVHNVRFYTIKPREIVSLAYSKSSKCLALSRATPVIELWNLEHAPYLDRVIHLPTDSHVESIAWAGNRLFSVDLSGKLIEWDVIKLKQRYEHSPTGNALWSIDVNPAETDIAIGSEEGHINILSIENDEITYKSLFNKQKGRVLCIKFDKTGTKLVTGTEGFVRIWNVLKGTTLHTMTLSEKNVIVWSLQVLSDNTIIAGDSAGFVTVWDADNATQIDSTRVLDKNVFALAVNNKEDRLVCSGMQPPLIRIFSKTKIKREESTSERWIKFLQRDAHKHYVKSLLVIDDQIYSGGRDGILTITSSERMQAHLSQHAPFLKGSVASMAISKKLLLLRYPNSVHLWRLGSVAPQGEDKKKPWALPVGHTEEQLLELPPQKLLQLNVKEHNFIQSAAISSDANWICYSTLKELRISRLKSDPLQVERLVDDLPEELQPASHIIFTKQGDLVLLNPQNNHLSWFTLEEDLVTFKYTIDLSEKCKNTISHVVISSHGEYIVAASSDHIISVWKLHGKQYKHLLNLPRHRAGTTALSMHEDYPRVVVAYANGQLVEYDLVNRIFTCETNEYLIPETRRHCINGISLDPQNRNIFIVHTEGNLYVLERDQHLDPKELVSNSKSKKLSNGNRSSVDGGSKGLSLKTTLSRQHLVHVSRLSPNELVNVSISTNNLLAPLPPPYQRKKFGAS	failed
MTNTHEINALKKYVRATNFLATSQIYLKQNVLHKRPLAHSDIKPRLLGHWGTCPGINFVYANINRLIVKHNRPFIYLVGPGHGFPAVQANLFIEGSLSHFYPETIPYNETGIEDICKKFSAAYGYPSHANPEAPGQILEGGELGYSLSVGWGAVLDNPDLIATVLVGDGESETGPLAASWYANRLVSPATNGAVLPIVHINGYKISGPTRMGRMSHEELDLEFRGLGYHPIIVDSEAEEDVYIQMATAMDTAYSMINDIQTRARKGEDIVK	failed
MTPASAVPAHPCPPGPNALRRRLLQAALSTGVLASIGTAAPAAASAHATSTPSKPMDLYAYVGSRTTRERNARGDGISVFRVDTQTGGLAPVQLVKDLVNPSFLALNPAGDRLYTVHGDLADISAFAVDRASGRLSFINRQSTQGKNPVHLALDPSGRFVVVTNHIGASLAVLPLAADGALGEVTQLVKLDGPIGPHRIEQKQAKPHFNRFDPAGRFVIVPDKGLDRTFAFRFAEGRLTPATPSFVSAREGAGPRHVAFRPDGRVAYVVNELDSTVTTYGYDAGTATLTPLQVLPSLPDTFTGNSRASEIKVDAAGRFVYASNRGHDSIAVFRIDAASGLLRFVAAEPSLGRTPRFFTIAPGGRFLYALNEDSDSIVAFAIDPHTGRLHPTGTRAQSGSPVCMVFSTPAA	failed
MTPDDFDRFWPTFQAIVQARETYAFDPALSFEQARQLWLELPLHTLLAEEDGELLGSYYLKPNAAGPGAHVGNCGYMVCEQARGRGVARLMCEHSQKLARQEGFLALQFNSVVASNEVAVALWHKLGFETVGRLPKAYRHARLGLVDCLVMYKWLAD	failed
MTPEQLMSLRATFRSPRRLLTESLAGLVVALALIPEAIAFSVIAGVDPRIGLFASFTMGVVTAIVGGRPAMISAATGAVALVIAPVMKEHGLDYLIATIILAGVFQIILAVLGVTKLMRFIPRSVMIGFVNALAILVFMSQMPELFDVPWMVYPIVVVGLVIVFGLPRITTAIPAPLVAIVAITLVTVLGNVDVPTVSDKGELPDSLPGFFLPNVPLNLETFQIIAPFALSMALVGLLESLMTAKLVDDITDTRSNKTRVSWGQGAANIVTGFLGGLGGCAVIGQTMINVKGSGARSRLSTFLAGVFLLILVVVLGDVVGMIPMAALVAVMIFVSLITFDWHSIRPSTLKRLPKSETAVMLITVAAVVATHNLAVGVGVGVVTAMVLFARRVAHFATVERTELELNGERVATYTVDGELFFASSNDLYTQFDYAKDSSDGIDRVIIDLHGSHIWDASTVAVLDSVTEKYRNHGREVEFIGLNEASVRMRERLAGKLNS	failed
MTPFENLSELPAQNTRFNGRAGMGTWLVNRLLNNIERGRLRVTLPGGGTIEKSGHQEGSEAILMLHNWRAIRRVLVNGDIGFAEGFIENDWSTPDLTALIRFAAQNQDAFARSTRGSLPMRLINRMAHALNANTRRGSRRNIEAHYDLGNEFYRQWLDPSMLYSSAIFDDTTPTLEAAQRKKLERIAEKLQLTGNNSVLEIGCGWGALAIHLATQQNADVTGITLSPSQLRWAENAAEKESKAGRIDLRLQDYRDVQGQFDNIVSVEMFEAVGESYWPSYFEMLKRCLKPGGRAVLQIISIDESRFDTYRRKADFIQKYVFPGGFLPSDSALEKSVGQAGLKLTETELFGQSYALTLAEWRQRFHARWQTISLLGFDERFRRLWDYYLCYCEAGFAEGTINVGLYTIEHG	failed
MTPLVSRLSRLWAIMRKPRAAVGSGHRKQAASQEGRQKHAKNNSQAKPSACDGLARQPEEVVLQASVSSYHLFRDVAEVTAFRGSLLSWYDQEKRDLPWRRRAEDEMDLDRRAYAVWVSEVMLQQTQVATVINYYTGWMQKWPTLQDLASASLEEVNQLWAGLGYYSRGRRLQEGARKVVEELGGHMPRTAETLQQLLPGVGRYTAGAIASIAFGQATGVVDGNVARVLCRVRAIGADPSSTLVSQQLWGLAQQLVDPARPGDFNQAAMELGATVCTPQRPLCSQCPVESLCRARQRVEQEQLLASGSLSGSPDVEECAPNTGQCHLCLPPSEPWDQTLGVVNFPRKASRKPPREESSATCVLEQPGALGAQILLVQRPNSGLLAGLWEFPSVTWEPSEQLQRKALLQELQRWAGPLPATHLRHLGEVVHTFSHIKLTYQVYGLALEGQTPVTTVPPGARWLTQEEFHTAAVSTAMKKVFRVYQGQQPGTCMGSKRSQVSSPCSRKKPRMGQQVLDNFFRSHISTDAHSLNSAAQ	failed
MTPMPSSVKPVEGRSVLIEWQDGHSSLYENVYLREHCQCAECVHEWTGEKLISRERIPADIRPVSVSAVGNYALSIRFSDGHGTGVYSYELLRKICPCPLCKA	failed
MTPNEDLIEIFEDEEISPSLTAKTWPILIVDDDQDVHDVSRLALRGVRLLDYDLETLHAYSAAQARAILSSRSDIAVALLDVVMEREDAGLDLVRWIRSDPARDLLRIVLRTGQPGYAPEATVIQDYDINDYRTKSELNRGRLISILTTALRSYRQMAVIAASRDGLDKIVRASADLLASPSMAIFAEGVLTQLAGLLGTERSGIVLARRNRRPGATASMAMTGDEGFVLAAAGPLSADIGRPLSDIGDHQTAEILRRTLESRRSSFDHGSMALYIATPNGDSLAVLMEVAKTLGDTDRKLVEVFCVNMAAGFDTISLFEQISLQAFHDEATGLPNLAACQSLIDQYLQRRQPVAVTFFSLEGFSAISDTLGRVIGDRMIGLLANAFRHRLQERGEVFRVGQETLATVIGGPVDQVGPLADQLAGDFRAGLPLDSMTLPVSFSHGTSVSTSEHDTAQILVQRAGIAMQKARNIKRGGGLTYAVAMEEEIRAHIGVISKLGAGVVSEAFVAVFQPKIRLADRSCHGGEALVRWRDGDGTMIAPSLFIPAAETSGHIVDIGYSVFRQSCAMIRSLKVSQDDARIAVNLSVRQMREPDLIDKLVSIAAEEGVATTRLKLEITESIVIDDLTHTVSLLKALKDKGFLLALDDFGTGYSSLSYLRSLPIDTLKIDRSFVSGLAEQADMRKIVGLIIGLGHELGFDITAEGVETEEEARIVTEMGCFTAQGYLFSKPLSAEDFLVFARTHAGARQTSGGSLSAEGCIRARDA	failed
MTPQNTIARELLFLALLSTLWAASYTFIKIGVETIPPLTFIAARTLIAGLLLLVVIRLRGLRLPRDPATWRLFFVQACINSVLPFTLIAWAEQSIDAGLAVILNATTPIFTFLLTALVIRHETVSGRKLFGTIAGMTGVCLIIGVEALGGAGEAIWSQLAVLTAAFSYACAAIFSKNFKGLDPVMPAAGSLICGAVLLLPVSLIVDRPWTLSPSAASLTALVCLSVFSTALAFMIYFRLMQTLGSVGTTSQAYLRVPVGVAIGMVFLGEVPTSAMWVGLVCVIAGVLAMTLPSRRRPATQGG	failed
MTPQRATLTGMLAIILWSTSVGLIRSLTEALGPIGGAAMIYSTSTLCLLVFYGLPRIKTLPRIYLFAGGALFVCYEIFLSLSIGLADSRMQAMEIGMINYLWPSLTILFSLFINQQKSRFLLWPGLVISLGGIVWIMKGESDWTPELLWNNILANPLAYSLAFSAALTWALYCNITKRYGQGKSGVSLFFFIASLVLWIQYSFSAEGPISLTLPSSLELLFMGASAALAYSAWNAGIQYGNLTLLATASYFTPVLSTLLAAIWLNITPAISFWQGVAMVTAGSLLCWYATRSSTR	failed
